Measurements: patent US20080280824A1, “COMPOSITIONS AND METHODS FOR TREATMENT OF CANCER OR NEURODEGENERATIVE DISEASE WITH PEPTIDE BASED MICROTUBULE STABILIZERS OR INHIBITORS” (University of Washington, priority 2007, published 2008)
Residue numbers refer to the chain shown, from its start. Numbers in names are those of the source.

B1: R120G: single point mutant of human αB crystallin, Arg-120 replaced with glycine (protein)
chain: MDIAIHHPWIRRPFFPFHSPSRLFDQFFGEHLLESDLFPTSTSLSPFYLRPPSFLRAPSWFDTGLSEMRLEKDRFSVNLDVKHFSPEELKVKVLGDVIEVHGKHEERQDEHGFISREFHGKYRIPADVDPLTITSSLSSDGVLTVNGPRKQVSGPERTIPITREEKPAVTAAPKK
B2: αAβ8: human αB crystallin mutant, β8 sequence 131LTITSSLS138 replaced with homologous β8 sequence of human αA crystallin (protein)
chain: B1 chain with G120R, L131S, T132A, I133L, T134S, S135C

Key:
citrate synthase = assay: In vitro chaperone assay, thermal aggregation of citrate synthase; assay type: biochemical
alcohol dehydrogenase = assay: In vitro chaperone assay, thermal aggregation of alcohol dehydrogenase; assay type: biochemical
βH crystallin = assay: In vitro chaperone assay, thermal aggregation of βH crystallin; assay type: biochemical
Bovine brain tubulin [1] = biological target: T1, Bovine brain tubulin (Bos taurus, UniProt P81947+Q6B856); assay: Microtubule assembly assay (DAPI fluorescence, Microtubule Stabilization/Destabilization Assay kit); assay type: biochemical; conditions: for microtubule assembly relative to wt αB crystallin: mutant αB crystallin, FIG. 4; for effect on microtubule assembly, vs absence of αB crystallin: wt or mutant αB crystallin protein, tubulin alone normalized to 1.0
T1 construct: Bovine brain tubulin was dissolved to 200 μM; purchased Cytoskeleton; Denver, Colo; host or cells: bovine brain
T1 sequence (P81947 whole entry): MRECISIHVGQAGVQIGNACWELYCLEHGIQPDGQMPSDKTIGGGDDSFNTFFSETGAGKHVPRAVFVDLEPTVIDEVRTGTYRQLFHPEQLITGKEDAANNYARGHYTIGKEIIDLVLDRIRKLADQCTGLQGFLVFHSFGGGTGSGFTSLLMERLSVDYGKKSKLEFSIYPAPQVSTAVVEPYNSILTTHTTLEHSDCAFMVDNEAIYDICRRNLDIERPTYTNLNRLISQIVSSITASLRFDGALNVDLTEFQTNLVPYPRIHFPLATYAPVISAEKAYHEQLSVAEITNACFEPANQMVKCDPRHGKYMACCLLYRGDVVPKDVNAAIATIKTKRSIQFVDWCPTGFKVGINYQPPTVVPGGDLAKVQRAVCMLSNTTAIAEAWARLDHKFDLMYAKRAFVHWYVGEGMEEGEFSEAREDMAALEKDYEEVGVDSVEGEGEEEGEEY
T1 sequence (Q6B856 whole entry): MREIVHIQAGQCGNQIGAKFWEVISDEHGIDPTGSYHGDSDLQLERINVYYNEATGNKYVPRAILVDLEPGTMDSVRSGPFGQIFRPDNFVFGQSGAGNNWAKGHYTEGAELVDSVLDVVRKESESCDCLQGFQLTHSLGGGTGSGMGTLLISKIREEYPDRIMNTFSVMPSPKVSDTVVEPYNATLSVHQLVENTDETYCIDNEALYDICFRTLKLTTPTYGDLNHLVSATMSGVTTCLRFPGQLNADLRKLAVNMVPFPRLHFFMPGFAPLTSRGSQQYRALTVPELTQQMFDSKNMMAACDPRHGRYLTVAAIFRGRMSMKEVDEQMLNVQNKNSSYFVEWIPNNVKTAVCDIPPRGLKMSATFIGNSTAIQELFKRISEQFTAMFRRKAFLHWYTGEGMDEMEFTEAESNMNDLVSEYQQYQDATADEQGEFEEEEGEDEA
Experimental: Microtubule assembly assays. The effect of selected αB crystallin peptides on the in vitro assembly of tubulin into microtubules was evaluated using the Microtubule Stabilization/Destabilization Assay kit (Cytoskeleton; Denver, Colo.) as described previously. Bonne et al., J Biol Chem 260:2819-25, 1985. Bovine brain tubulin was dissolved to 200 μM in 80 mM PIPES, 2 mM MgCl2, 0.5 mM EGTA, 10 μM DAPI, 1 mM GTP pH 6.9. 8.5 μl of the tubulin was mixed with 40 μl of 80 mM PIPES, 2 mM MgCl2, 0.5 mM EGTA, 7.4 μM DAPI, 16% Glycerol, 1.1 mM GTP pH 6.9 and 4.3 μl of 2 mM peptide in 2.5% DMSO, 2 mM Paclitaxel (polymerization promoter) in 100% DMSO, 15 mM CaCl2 (polymerization inhibitor) in water, or 2.5% DMSO only. Microtubule assembly was monitored by measuring the fluorescence of DAPI, a molecule whose emission fluorescence at λ=460 is enhanced 8-fold when it is incorporated into assembled microtubules. Bonne et al., J Biol Chem 260:2819-25, 1985. Fluorescence of samples were continuously read on a Perkin Elmer Victor^3 V fluorescence plate reader (Excitation λ=355 nm, Emission λ=460 nm) at 37° C. for 45 minutes.
The effect of wt and three mutant αB crystallins, Δ41-58, αAβ8, and Δ155-165 on the in vitro assembly of tubulin into microtubules was evaluated using the Microtubule Stabilization/Destabilization Assay kit described above (Cytoskeleton; Denver, Colo.). Bovine brain tubulin was dissolved to 200 μM in 80 mM PIPES, 2 mM MgCl2, 0.5 mM EGTA, 10 μM DAPI, 1 mM GTP pH 6.9. 8.5 μl of the tubulin was mixed with 40 μl of 80 mM PIPES, 2 mM MgCl2, 0.5 mM EGTA, 7.4 μM DAPI, 16% Glycerol, 1.1 mM GTP pH 6.9 and 4.3 μl of 80 μM protein in 20 mM Tris-Cl, pH8.0 or Tris-Cl buffer only. Fluorescence of samples were continuously read on a Perkin Elmer Victor^3 V fluorescence plate reader (Excitation λ=355 nm, Emission λ=460 nm) at 37° C. for 45 minutes.

Bovine brain tubulin [2] = assay: Tubulin thermal aggregation assay (absorbance at 340 nm); assay type: biochemical; conditions: for tubulin aggregation relative to wt αB crystallin: mutant αB crystallin, FIG. 4; for effect on tubulin aggregation, vs absence of αB crystallin: wt or mutant αB crystallin protein, 52° C., 60 minutes
Experimental: Tubulin aggregation assays. The effect of αB crystallin peptides and mutants on the thermal aggregation of tubulin was evaluated using ultra-violet spectroscopy. Bovine brain tubulin was dissolved to 200 μM in 80 mM PIPES, 2 mM MgCl2, 0.5 mM EGTA, pH 6.9. 4.25 μl of 0.08, 0.4, or 2 mM test peptide or protein was diluted into 40 μl of 80 mM PIPES, 2 mM MgCl2, 0.5 mM EGTA, pH 6.9. 8.5 μl of the 200 μM tubulin was added to each sample. Samples were heated at 52° C. and the absorbance at λ=340 nm was measured continuously for 60 minutes using a Pharmacia Biotech Ultrospec 3000. GTP and glycerol were not present in the samples because they induce the assembly of microtubules.

pre-formed microtubules = assay: Microtubule disassembly assay (DAPI fluorescence); assay type: biochemical, Bovine; conditions: for microtubule disassembly relative to wt αB crystallin: mutant αB crystallin, FIG. 4; for effect on microtubule disassembly (words), vs absence of αB crystallin: wt or mutant αB crystallin (6.8 μM and 34 μM), 34 μM microtubules, 23° C., 20 minutes
Experimental: Microtubule disassembly assays. The effect of αB crystallin peptides and mutants on the in vitro disassembly of microtubules into soluble tubulin was evaluated using the Microtubule Stabilization/Destabilization Assay kit described above (Cytoskeleton; Denver, Colo.) as described previously^36. 34 μM pre-formed microtubules were incubated with the αB crystallin peptides (170 μM) or wt and mutant αB crystallins (6.8 μM and 34 μM) at 23° C. for 20 minutes. Incubation of microtubules at 23° C. results in the spontaneous disassembly of microtubules. The decrease in DAPI fluorescence at λ=460 nm was measured continuously for 20 minutes by exciting the samples at λ=355 nm using a Perkin Elmer Victor^3 V fluorescence plate reader.

Row | Molecule | effect on thermal aggregation of citrate synthase (citrate synthase) | effect on thermal aggregation of alcohol dehydrogenase (alcohol dehydrogenase) | effect on thermal aggregation of βH crystallin (βH crystallin) | microtubule assembly relative to wt αB crystallin (Bovine brain tubulin [1]) | effect on microtubule assembly, vs absence of αB crystallin (Bovine brain tubulin [1]) | tubulin aggregation relative to wt αB crystallin (Bovine brain tubulin [2]) | effect on tubulin aggregation, vs absence of αB crystallin (Bovine brain tubulin [2]) | microtubule disassembly relative to wt αB crystallin (pre-formed microtubules) | effect on microtubule disassembly (words), vs absence of αB crystallin (pre-formed microtubules)
1 | LTITSSLSDGV | inhibited | inhibited | inhibited | – | – | – | – | – | –
2 | RTIPITRE | inhibited | inhibited | inhibited | – | – | – | – | – | –
3 | B1 | – | – | – | lower | unchanged | similar | decreased | similar | unchanged
4 | B2 | – | – | – | increased | increased | unchanged | decreased | decreased | completely inhibited
